Experimental data: patent publication US20250387450A1 (AIKIUM, published 2025)
Changes are numbered by the printed parent chain.

T1: TNFRSF13B disordered region peptide, LPPELRRQRSGEVENNSDNSGRYQ (biotin label)
T1 construct: also called TNFRSF13B Peptide
T1 peptide: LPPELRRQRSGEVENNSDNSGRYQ

T2: KAAG1 disordered region peptide, PGAAAAHLPRWPPPQLAASRREA (biotin label)
T2 construct: also called KAAG1 Peptide
T2 peptide: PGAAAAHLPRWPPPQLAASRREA

T3: CYSLTR2 short linear epitope peptide, SISVSEMEPNGTFSNNNSRNC (N-terminal biotin)
T3 peptide: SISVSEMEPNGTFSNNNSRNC

T4: CD40LG short linear epitope peptide, NKEETKKENSFEMQKGDQNPQIAAH (biotin label)
T4 construct: also called CD40LG Peptide
T4 peptide: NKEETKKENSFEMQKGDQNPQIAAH

T5: GMERKFMSLQPSISVSEMEPNGTFSNNNSRNCTIENFKREFFP (biotinylated, position not given)
T5 construct: also called CYSLTR2 (longer peptide of the disordered region)
T5 peptide: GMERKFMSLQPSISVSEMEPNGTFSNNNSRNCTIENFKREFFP

T6: KCNA6 short linear epitope peptide, QQQEQQPASGGGGQNGQQAMS (biotin label)
T6 construct: also called KCNA6 Peptide
T6 peptide: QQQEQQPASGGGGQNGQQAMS

T7: Urotensin-2 receptor N-terminal peptide, MALTPESPSSFPGLAATGSSVPEPPGGPNATLNSSWASPTEPSSLEDLVATGTI (biotin label)
T7 construct: also called Urotensin IIR; GPCR2 (Urotensin II)
T7 peptide: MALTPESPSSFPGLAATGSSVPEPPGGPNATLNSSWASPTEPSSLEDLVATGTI

T8: CYSLTR2 N-terminal disordered region peptide, MERKFMSLQPSISVSEMEPNGTFSNNNSRNCTIENFKREFFP (biotin label)
T8 construct: also called CysLT2; CysLT2r
T8 peptide: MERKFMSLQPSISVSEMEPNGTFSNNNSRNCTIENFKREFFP

T9: CD74 disordered region peptide (CLIP), PPKPVSKMRMATPLLMQALPMGALP (biotin label)
T9 construct: also called CD74 Peptide
T9 peptide: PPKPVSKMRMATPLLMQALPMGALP

B1: engineered scaffold protein S193 (designed binder)
chain: MGSKARMATGALAQAGGSGGSMIKEEHVINQAEYYLNPDQSGEFKFDFDGDEIFHVDMAKKETVWRLEEFGRFASFEAQGALAHIAVDKANLEIMTKRSNYTPMGDTRPRFLWQLKYECHFFNGTERVRLNERCIYNQEESVRFDSDVGEYRAVTELGRPDAEQWNSQKDHLEQRRAAVDTKCRHNYGVGESFTVQGGSHHHHHH
B2: engineered scaffold protein S065 (designed binder)
chain: GSHSMRYFYTSVSRPGRGEPRFISVGYVDDTQFVRFDSDAASPREEPRAPWIEQEGPEAWDRNTQIYKAQAQTDRESLRNLRGYYNQSEAGSHTLQSMYGCDVGPDGRLLRGHDQYAYDGKDSIALNEDLRSWTAADTAAQITQRYWEAAREAEQRRAYLEGECVEHLRRVLENGKDKLERADGGSHHHHHHLE
B3: S180 (designed binder)
single chain: MKEEHVIIQAEFYLNPDQSGEFMFDFDGDEIFHVDMAKKETVWRLEEFGRFASFEAQGALANIAVDKANLEIMTKRSNYTPITNTRPRFLWQPKRECHFFNGTERVRFLDRYFYNQEESVRFDSDVGEFRAVTELGRPDAEYWNSQKDILEQARAAVDTYCRHNYGVVESFTVQRRVQGGSHHHHHHLE
notes: also called engineered scaffold protein S180
B4: S189 (designed binder)
single chain: MGIKEEHVINQAEYCLNPDQSGEFKFDFDGDEIFHVDMAKKETVWRLEEFGRFASFEAQGALAHIAVDCANLEIMTKRSNYTPMGDTRPRFLWQLKYECHFFNGTERVRLNERCIYNQEESVRFDSDVGEYRAVTELGRPDAEQWNSQKDHLEQRRAAVDTKCRHNYGVGESFTVQGGSHHHHHH
notes: also called engineered scaffold protein S189
B5: engineered scaffold protein S068 (designed binder)
chain: GDTRPRFLWQLKFECHFFNGTERVRLLERCIYNQEESVRFDSDVGEYRAVTELGRPDAEYWNSQKDLLEQRRAAVDTYCRHNYGVGESFTVQRRVEPKVTVYPSKTQPLQHHNLLVCSVSGFYPGSIEVRWFRNGQEEKAGVVSTGLIQNGDWTFQTLVMLETVPRSGEVYTCQVEHPSVTSPLTVEWRASGGGGSGGGGSGGGGIKEEHVIIQAEFYLNPDQSGEFMFDFDGDEIFHVDMAKKETVWRLEEFGRFASFEAQGALANIAVDKANLEIMTKRSNYTPITNVPPEVTVLTNSPVELREPNVLICFIDKFTPPVVNVTWLRNGKPVTTGVSETVFLPREDHLFRKFHYLPFLPSTEDVYDCRVEHWGLDEPLLKHWEFDAPSGGSHHHHHHLE
B6: engineered scaffold protein S077 (designed binder)
chain: KPVSKMRMATPLLMQALPMASGGGGSGGGGDTRPRFLWQLKFECHFFNGTERVRLLERCIYNQEESVRFDSDVGEYRAVTELGRPDAEYWNSQKDLLEQRRAAVDTYCRHNYGVGESFTVQRRSGGGIKEEHVIIQAEFYLNPDQSGEFMFDFDGDEIFHVDMAKKETVWRLEEFGRFASFEAQGALANIAVDKANLEIMTKRSNYTGGSHHHHHHLE
B7: engineered scaffold protein S078 (designed binder)
chain: GDTRPRFLWQLKFECHFFNGTERVRLLERCIYNQEESVRFDSDVGEYRAVTELGRPDAEYWNSQKDLLEQRRAAVDTYCRHNYGVGESFTVQRRSGGGIKEEHVIIQAEFYLNPDQSGEFMFDFDGDEIFHVDMAKKETVWRLEEFGRFASFEAQGALANIAVDKANLEIMTKRSNYTGGSHHHHHHLE
B8: engineered scaffold protein S098 (designed binder)
chain: PENYLFQGRQECNGTQFLERYIYNREEFVRFDEFRAVGRPDEEYWNSQKDILEEERAVPDRMCRHNYELGGPMTLQRRVQPRVNIKADHVSTYAAFVQRPFMFEFDEDEMFYVDLHLEEFGQAFSFEAQGGLANIAILNNNLNTRSNHTQATNDPPHHHHHHLE
B9: engineered scaffold protein S143 (designed binder)
chain: MGDTRPRFLWQLKFECHFFNGTERVRLLERCIYNQEESVRFDSDVGEYRAVTELGRPDAEYWNSQKDLLEQRRAAVDTYCRHNYGVGESFTVQRRVIKEEHVIIQAEFYLNPDQSGEFMFDFDGDEIFHVDMAKKETVWRLEEFGRFASFEAQGALANIAVDKANLEIMTKRSNYTPTINGGSHHHHHH
B10: engineered scaffold protein S134 (designed binder)
chain: MVKYHHHHHHGGSENLYFQGMGDTRPRFLWQPKRECHFFNGTERVRFLDRYFYNQEESVRFDSDVGEFRAVTELGRPDAEYWNSQKDILEQARAAVDTYCRHNYGVVESFTVQRRVIKEEHVIIQAEFYLNPDQSGEFMFDFDGDEIFHVDMAKKETVWRLEEFGRFASFEAQGALANIAVDKANLEIMTKRSNYTPITN
B11: engineered scaffold protein S058 (designed binder)
chain: B2 chain with F8N, V25E, A59Y, A117Y, S123Y, A125S, Y146K, H167W, V171Y

Target: T1, TNFRSF13B disordered region peptide, …
Test: ELISA: scaffold coated on plate, biotinylated peptide titrated, streptavidin-HRP fluorescence
Method: (§1) Binder proteins were coated on the surface of a high binding capacity 96 well plate by incubating 100 μL of protein at 5 μg/mL in a coating solution (10 mM Tris pH 8.8, 50 mM NaCl), overnight at 4 C. The next morning, the coating solution was aspirated out and wells were washed once with 300 μL ELISA wash buffer (1×PBS, 0.05% Tween-20) and solution was aspirated out. The wells were blocked with 200 μL of a blocking buffer (1×PBS, 0.05% Tween-20, 3% BSA) at room temperature for 1 hour. After one hour, the blocking solution was aspirated out and 100 μL of biotinylated polypeptide in a binding buffer (1×PBS, 0.05% Tween-20, 0.5% BSA) at various concentrations was added to the appropriate well and incubated for 20 minutes. Peptide solution was aspirated out after 20 minutes and wells were washed 5 times with 300 μL of ELISA wash buffer. To detect the biotinylated peptide, 100 μL of streptavidin-HRP (50 ng/ml) was added to each well and incubated for 1 hour. The wells were subsequently washed 5 times with 300 μL of ELISA wash buffer. 100 μL of QuantaBlu Fluorogenic Peroxidase substrate solution was added to each well, incubated for 30 minutes and reaction stopped by adding 100 μL of stop solution. Fluorescent signal from each well was measured using a Biotek Cytation5 plate reader by exciting the fluorophore at […] and measuring emission at 420 nm. Fluorescent signals were plotted as a function of polypeptide concentration.

binding result	Binder
no binding (tested: 10000 nM)	B1

Target: T2, KAAG1 disordered region peptide, …
Test: as above
Method: as §1

binding result	Binder
no binding (tested: 10000 nM)	B2
no binding (tested: 10000 nM)	B1

Target: T3, CYSLTR2 short linear epitope peptide, …
Test: as above
Method: as §1

binding result	Binder
binds	B1
binds	B3
binds	B4

Target: T4, CD40LG short linear epitope peptide, …
Test: as above
Method: as §1

binding result	Binder
no binding (tested: 10000 nM)	B1

Target: T5, GMERKFMSLQPSISVSEMEPNGTFSNNNSRNCTIENFKRE …
Test: as above
Method: as §1

binding result	Binder
binds	B1
binds	B3
binds	B4

Target: T6, KCNA6 short linear epitope peptide, …
Test: as above
Method: as §1

binding result	Binder
no binding (tested: 10000 nM)	B1

Target: T1, TNFRSF13B disordered region peptide, …
Test: modified sandwich ELISA, grade by the table's key
Method: as §1

Binder	binding result
B5	no binding (tested: <5000 (fluorescence, key))
B2	no binding (tested: <5000 (fluorescence, key))
B6	no binding (tested: <5000 (fluorescence, key))
B7	no binding (tested: <5000 (fluorescence, key))
B8	no binding (tested: <5000 (fluorescence, key))

Target: T2, KAAG1 disordered region peptide, …
Test: modified sandwich ELISA, grade by the table's key
Method: as §1

Binder	binding result
B5	no binding (tested: <5000 (fluorescence, key))
B9	no binding (tested: <5000 (fluorescence, key))
B10	no binding (tested: <5000 (fluorescence, key))
B6	no binding (tested: <5000 (fluorescence, key))
B7	no binding (tested: <5000 (fluorescence, key))
B8	no binding (tested: <5000 (fluorescence, key))

Target: T7, Urotensin-2 receptor N-terminal …
Test: modified sandwich ELISA, grade by the table's key
Method: as §1

Binder	binding result
B5	no binding (tested: <5000 (fluorescence, key))
B11	no binding (tested: <5000 (fluorescence, key))
B2	no binding (tested: <5000 (fluorescence, key))
B6	no binding (tested: <5000 (fluorescence, key))
B7	no binding (tested: <5000 (fluorescence, key))
B8	no binding (tested: <5000 (fluorescence, key))

Target: T8, CYSLTR2 N-terminal disordered region …
Test: modified sandwich ELISA, fluorescence grade by the table's key
Method: as §1

fluorescent signal [fluorescentsignal]	Binder
100000 to 250000	B6
50000 to 100000	B7
100000 to 250000	B8

Target: T9, CD74 disordered region peptide (CLIP), …
Test: as above
Method: as §1

fluorescent signal [fluorescentsignal]	Binder
> 400000	B5
> 400000	B9
> 400000	B11
> 400000	B2
100000 to 250000	B10
> 400000	B6
> 400000	B7
> 400000	B8
